Blank lines part the entries; values can stand above or below the molecule they belong to.
Key:
[1] = molecular target: Neuronal precursor cell expressed developmentally downregulated 4-2 (NEDD4-2) (mouse (endogenous in hippocampus)) (UniProt Q8CFI0); test: co-IP; mouse hippocampal tissue lysed in RIPA buffer with protease and phosphatase inhibitors; equal protein incubated with NEDD4-2, ubiquitin or GluA1 antibody and protein G sepharose at 4 °C overnight; western blot; WT, PLPP/CIN^-/- and PLPP/CIN^Tg mice, saline or KA (25 mg/kg, 2 h), control or NEDD4-2 siRNA
[2] = molecular target: T1, Neuronal precursor cell expressed developmentally downregulated 4-2 (NEDD4-2) (mouse (endogenous in hippocampus), UniProt Q8CFI0 1-1004); test: as above; settings: partners not purified
T1 construct: NEDD4-2 E3 ubiquitin ligase, endogenous in mouse hippocampus; S222 and S328 in murine NEDD4-2; source: endogenous, mouse hippocampal tissue lysate (RIPA buffer)
T1 sequence (looked up): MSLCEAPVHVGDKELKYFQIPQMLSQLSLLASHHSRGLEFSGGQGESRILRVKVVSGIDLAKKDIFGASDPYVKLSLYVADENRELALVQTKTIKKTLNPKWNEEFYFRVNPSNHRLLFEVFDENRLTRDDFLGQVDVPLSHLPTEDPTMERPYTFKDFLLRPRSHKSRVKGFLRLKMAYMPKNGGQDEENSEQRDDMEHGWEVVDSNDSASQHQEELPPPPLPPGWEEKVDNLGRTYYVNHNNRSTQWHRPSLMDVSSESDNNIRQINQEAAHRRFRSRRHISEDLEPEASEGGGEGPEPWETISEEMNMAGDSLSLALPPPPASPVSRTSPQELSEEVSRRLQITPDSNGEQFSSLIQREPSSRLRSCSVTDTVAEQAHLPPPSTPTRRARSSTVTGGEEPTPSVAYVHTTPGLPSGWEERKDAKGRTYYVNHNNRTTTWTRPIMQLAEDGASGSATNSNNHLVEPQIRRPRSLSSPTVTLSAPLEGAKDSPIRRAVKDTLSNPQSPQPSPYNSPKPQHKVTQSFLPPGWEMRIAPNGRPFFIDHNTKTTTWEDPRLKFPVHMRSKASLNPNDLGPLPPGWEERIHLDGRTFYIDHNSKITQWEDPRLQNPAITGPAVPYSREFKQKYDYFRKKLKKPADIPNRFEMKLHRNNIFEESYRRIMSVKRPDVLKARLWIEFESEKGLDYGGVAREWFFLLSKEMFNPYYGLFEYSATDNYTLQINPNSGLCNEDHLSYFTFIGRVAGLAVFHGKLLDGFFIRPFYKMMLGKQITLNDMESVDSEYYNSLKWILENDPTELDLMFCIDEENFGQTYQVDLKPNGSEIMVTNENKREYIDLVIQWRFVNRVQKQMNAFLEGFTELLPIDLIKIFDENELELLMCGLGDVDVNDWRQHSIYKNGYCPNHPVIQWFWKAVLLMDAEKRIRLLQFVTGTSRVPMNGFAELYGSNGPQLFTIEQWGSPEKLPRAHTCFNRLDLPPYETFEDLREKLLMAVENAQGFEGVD

[3] = molecular target: T2, full-length recombinant human NEDD4-2, phosphorylated by SGK1 (human, UniProt Q96PU5 1-975, phosphorylated by incubation with 200 U/μl SGK1 and 100 μM ATP (S342 and S448 phosphorylation followed by western blot)); test: co-IP; in vitro with recombinant proteins: NEDD4-2 (10 ng/μl) phosphorylated with 200 U/μl SGK1 and 100 μM ATP in kinase assay buffer I at 30 °C for 1 h, then PLPP/CIN (10 ng/μl) added, 30 °C for 1 h; coprecipitation and western blot; settings: both partners purified
T2 construct: human NEDD4-2, full-length recombinant protein (Abcam); SGK1 and ATP were still in the sample when PLPP/CIN was added; source: bought: Abcam; phosphorylated in vitro with SGK1 (SignalChem) and ATP
T2 sequence (looked up): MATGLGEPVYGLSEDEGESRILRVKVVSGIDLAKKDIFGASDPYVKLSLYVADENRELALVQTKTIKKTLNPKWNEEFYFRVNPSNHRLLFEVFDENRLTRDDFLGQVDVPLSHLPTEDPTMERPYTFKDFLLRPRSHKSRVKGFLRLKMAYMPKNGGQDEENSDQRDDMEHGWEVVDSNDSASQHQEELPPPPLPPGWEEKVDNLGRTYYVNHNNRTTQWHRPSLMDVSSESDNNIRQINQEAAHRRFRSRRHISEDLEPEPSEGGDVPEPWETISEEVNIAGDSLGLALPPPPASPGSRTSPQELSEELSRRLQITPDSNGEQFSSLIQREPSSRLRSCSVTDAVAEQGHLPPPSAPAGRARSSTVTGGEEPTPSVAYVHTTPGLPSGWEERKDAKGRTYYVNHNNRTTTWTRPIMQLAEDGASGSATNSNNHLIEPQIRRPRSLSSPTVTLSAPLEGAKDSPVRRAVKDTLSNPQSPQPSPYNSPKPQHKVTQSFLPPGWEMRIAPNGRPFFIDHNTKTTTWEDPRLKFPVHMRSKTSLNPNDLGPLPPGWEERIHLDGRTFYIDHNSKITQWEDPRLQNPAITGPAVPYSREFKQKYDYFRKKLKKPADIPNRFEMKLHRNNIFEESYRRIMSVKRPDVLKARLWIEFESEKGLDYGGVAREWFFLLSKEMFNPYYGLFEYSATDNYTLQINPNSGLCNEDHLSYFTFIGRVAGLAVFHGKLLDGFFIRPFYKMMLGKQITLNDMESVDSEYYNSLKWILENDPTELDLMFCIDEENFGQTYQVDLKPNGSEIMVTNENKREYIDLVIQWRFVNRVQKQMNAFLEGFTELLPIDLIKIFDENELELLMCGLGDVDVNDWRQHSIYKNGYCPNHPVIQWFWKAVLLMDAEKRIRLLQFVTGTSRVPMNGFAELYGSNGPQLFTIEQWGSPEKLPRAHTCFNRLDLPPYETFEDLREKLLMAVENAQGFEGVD

- fold of the binding in WT mice [1]: 1.4 fold
Molecule: PLPP/CIN in PLPP/CIN transgenic (PLPP/CIN^Tg) mice (from UniProt P60487 1-292)

- fold of control level (2 h after KA, WT mice) [2]: ~1.4 fold
B1: Pyridoxal-5'-phosphate phosphatase/chronophin (PLPP/CIN) (enzyme, mouse (endogenous in hippocampus), UniProt P60487 1-292, looked up)
chain: MARCERLRGAALRDVLGQAQGVLFDCDGVLWNGERIVPGAPELLQRLARAGKNTLFVSNNSRRARPELALRFARLGFAGLRAEQLFSSALCAARLLRQRLSGPPDASGAVFVLGGEGLRAELRAAGLRLAGDPGEDPRVRAVLVGYDEQFSFSRLTEACAHLRDPDCLLVATDRDPWHPLSDGSRTPGTGSLAAAVETASGRQALVVGKPSPYMFQCITEDFSVDPARTLMVGDRLETDILFGHRCGMTTVLTLTGVSSLEEAQAYLTAGQRDLVPHYYVESIADLMEGLED
notes: Pyridoxal-5'-phosphate phosphatase/chronophin, endogenous in the hippocampus of WT mice; source: endogenous, mouse hippocampal tissue lysate (RIPA buffer)

- binding result [3]: binds
B2: recombinant human PLPP/CIN protein (enzyme, UniProt Q96GD0 1-296, looked up)
chain: MARCERLRGAALRDVLGRAQGVLFDCDGVLWNGERAVPGAPELLERLARAGKAALFVSNNSRRARPELALRFARLGFGGLRAEQLFSSALCAARLLRQRLPGPPDAPGAVFVLGGEGLRAELRAAGLRLAGDPSAGDGAAPRVRAVLVGYDEHFSFAKLREACAHLRDPECLLVATDRDPWHPLSDGSRTPGTGSLAAAVETASGRQALVVGKPSPYMFECITENFSIDPARTLMVGDRLETDILFGHRCGMTTVLTLTGVSRLEEAQAYLAAGQHDLVPHYYVESIADLTEGLED
notes: human pyridoxal-5'-phosphate phosphatase/chronophin, recombinant protein (Abcam); The sentence reads 'full-length recombinant human NEDD4-2 (Abcam, UK) and human PLPP/CIN proteins'; whether 'full-length' also covers PLPP/CIN is not clear; source: bought: Abcam

Source: PMC6639327, “PLPP/CIN-mediated NEDD4-2 S448 dephosphorylation regulates neuronal excitability via GluA1 ubiquitination” (Cell Death & Disease, 2019)
